This passage reports binding result and Kd results from publication PMC6332795 (Theranostics, 2019).

The chains are these.
T1: hemagglutinin (HA) of influenza B virus B/Lee/1940, on purified virus (influenza B virus (B/Lee/1940))
T1 chain: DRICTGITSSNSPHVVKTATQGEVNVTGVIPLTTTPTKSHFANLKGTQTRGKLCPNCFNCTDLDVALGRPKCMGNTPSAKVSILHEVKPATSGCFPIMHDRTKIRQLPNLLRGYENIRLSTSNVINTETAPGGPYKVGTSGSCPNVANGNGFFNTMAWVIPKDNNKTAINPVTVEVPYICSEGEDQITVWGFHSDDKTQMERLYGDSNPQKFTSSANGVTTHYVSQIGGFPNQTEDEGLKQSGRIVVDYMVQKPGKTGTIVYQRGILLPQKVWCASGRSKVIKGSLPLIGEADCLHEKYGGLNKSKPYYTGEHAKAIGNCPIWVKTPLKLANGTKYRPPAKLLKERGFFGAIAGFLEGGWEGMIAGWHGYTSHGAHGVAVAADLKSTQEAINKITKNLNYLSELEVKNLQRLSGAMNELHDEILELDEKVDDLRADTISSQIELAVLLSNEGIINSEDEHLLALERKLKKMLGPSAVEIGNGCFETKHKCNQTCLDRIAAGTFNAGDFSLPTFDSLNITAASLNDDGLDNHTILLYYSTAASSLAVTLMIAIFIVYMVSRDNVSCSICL

B1: C3G10-IgM (antibody, V domains shown)
VH: EVQLQESGAELVKPGASVKLSCTASGFDIKDTYIHWVKQKPEKGLEWIGRIDPADGDTQSDPRFQGKATITSDTSSNTTYLHLSSLTSEDTAVYYCAKGGWYFDVWGAGTTVTVSS
VL: HIVLTQSPASLAVSLGQRGTISCRASESVDSYGNSFMHWYQQRPGQPPKLLIYLASKLKCGVPARFSGSGSRTDFTLTNDPLEGGDGATYYCQQNNEVPRTFGGGTKLEIK
B2: C3G10-IgG (antibody, V domains shown)
VH: B1 VH
VL: B1 VL
B3: C7G6-IgM (antibody, V domains shown)
VH: EVQLQQSGPELVKPGASVKISCKASGYTFTDYNMHWVKQSLGKSLEWIGYIYPNNGGTGYNQKFESKATLTADNSSSTAYMELRTLTSEDSAVYYCVRSGAYYFNYLVPYFDYWGQGTTLTVSS
VL: NIVLTQSPASLAVSLGQRGTISCRASESVDIYGNSFMHWYQQKPGQPPKLLIYLASKLECGVCARFNGSGCRTDFTLAIDPVEGDDGATYYCQQNYEDPWTFGGGTKLEIK
B4: C11B10 (antibody, V domains shown)
VH: EVQLQQSGPELVKPGASVKISCKASGYTFTGYNMHWVKQSHGKSLEWIGKIYPNNGVTGYNQEFRSKATLTVDNSSSTAYMELRSLTSEDSAIYFCVRSGAYYVNYLVPYFDYWGQGTTLTVSS
VL: B3 VL with L15P, G19A, V29I, Q42K, L54R, K57N, C60S, C63P, C71S, A78T
B5: C7G6-IgG (antibody, V domains shown)
VH: B3 VH
VL: B3 VL
B6: C10H10-IgM (antibody, V domains shown)
VH: EIQLQQSGPELVKPGASLKVSCKGFGYSFTDYKMYWVKQSHGKSLEWIGYIDPYNGGMRYNQKFKVKATLTVDMSSNTTFMHLNSLTFEDFAVYYCARGYGKNYAMEYWGQGTSVTVSS
VL: NIVLTQSPASLAVSLGQRATISCRASESVDTYGQSFMHWYQQKPGQPPKLLIHLASNLESGVPARFNGSGSRTDFTLTIDPVEADDAATYYCQQNNEDPYTFGGGTKLEIK
B7: C10H10-IgG (antibody, V domains shown)
VH: B6 VH
VL: B6 VL

Residue numbers refer to the chain shown, from its start.

For the first assay, the target named is T1, hemagglutinin (HA) of influenza B virus …. Description: ELISA. (An ELISA detects its analyte on a solid surface through an enzyme-linked reagent.)
For the molecule B1, the binding result is “binds”.
For the molecule B2, the binding result was “binds”.
As for B3, the binding result was “binds”.
Turning to B4, the binding result is “no binding”.
For B5, the binding result is “binds”.
Still for that read-out and setting: the same measure for B6: “no binding”; for B7: “no binding”.

The target in another assay is B/Florida/4/2006 HA (recombinant HA protein) (Influenza B virus (B/Florida/4/2006), UniProt E1TVD5, strain, biotin (EZ-Link Sulfo-NHS-LC-Biotin kit)). Briefly: BLI. Background: In BLI a coated tip is dipped into the sample, and binding shifts an interference pattern.
B3: the Kd – broadly, the free concentration of one partner at which half of the binding sites on the other are occupied at equilibrium, for simple one-to-one binding – turned out to be 0.58 nM.
In the case of B5, the Kd was found to be 24.7 nM.
